# In article PMC6104087, “Structural basis for membrane tethering by a bacterial dynamin-like pair” (Nature Communications, 2018):
# B1: Cj-DLP1 (natural protein, Campylobacter jejuni, UniProt A0A0H3PJL7 1-728, looked up)
# chain: MKELFQKIWQNELQFLNFDAKFQDKSKLDTAECAIILSVNKDNYERYFLLKEFQELCKKIDLRVDIFSMQNAQICILNLFKSGFISKQDLLKALKILEKISKNTEIFDFILQEKVQSIDQKALFQNDFKELNTINLELQKLSFDENLKSRLQKTLEKFQNLEFNIAITGVMNAGKSSLLNALLKEDFLGVSNIPETANLTVLSYGKSEEAKIYFWDKKEWQNILESSHFNADLKEFIDKLDKSVNIEDFIKDKPLIQNIALCELKNFSSAKNKISALIKKIEIKSHLEFLKNNISIVDTPGLDDVVVQREIVTNEYLRESDFLIHLMNASQSLTQKDADFLVHCLLNSRLSKFLIVLTKADLLSKKDLEEVIVYTKESLKSRLVDLDENLVEKIDFLCVSAKMASDFYKGLASKESLQKSGMQEFENYLFNELYAGEKSKIALRAYKKELHLELKNILSEYEMQNRLIKENKQGVSEENQKLLLELQKQNTLLKEAQDEISNSIAKLKNIDSGIDNLVLLLAKKLKERLIDEFKYLKNNAQKLNLSRILNIVDITTKDGINDILREIKFENIKKIEELKTNLSLKYDFLKDDFDNGFEGFKDGISKNIDSIFQSEKFALLRLKIEKLSNLKSDLYELETNLDTVIFDTFKEFKMSEILNSLNINGAFFEFLNDKLKHYEKNQKSKLESLEKVLQSLKNQDANILNSFEENLEKIEKLKQLEMGLLNAD
# notes: Cj-DLP1, dynamin-like protein of Campylobacter jejuni, gene cj0411, full-length protein, 84.5 kDa; Monomer alone; Two copies stand in the 2:2 tetramer with Cj-DLP2; also called cj0411; CJ0411; source: E. coli BL21 (DE3), purified (HisTrap, gel filtration)
# B2: Cj-DLP2_(∆trunk-tip) (natural protein)
# chain: MQINLLNDFIKAYENTYSVSFDDSFKGRIQELCKELNEPFMHASYALENELKELVFSLDKNVNIAIIGQFSSGKSSLLNLILGRDCLPTGVVPVTFKPTFLRYAKEYFLRVEFEDGSDIITNIEKLAFYTDQRNEVKQAKSLHIFAPIPLLEKITLVDTPGLNANENDTLTTLDELKNIHGAIWLSLIDNAGKKSEEDAIKANLELLGENSICVLNQKDKLSAEELDNVLNYAKSVFLKYFNELIAISCKEAKDEQSYEKSNFQSLLDFLTQLDTTVLKEKFVKRKILNLCEILEDENQLFVGIFDRLLNQFQSYEKHLLLAYENFLKEIEILNHQILEQLKSISERMSKEFKKIKNELYKSFEEIKMKLKDFINILEREILLFKAEFSNIQKDHIFQSDKNFSELRAFCNASDEYFLKDFKELLFKSILELDLFFEKLNLKAFTNYENATKLSRVLNELNVYEFETLLINKPILTKIAKNFLEQSQNLIQEKNKFLDLKKAELQKRRAQILNVRESIKED
# notes: Cj-DLP2 of Campylobacter jejuni (cj0412) with amino acids 348-401 and 509-542 within the trunk tip removed; also called Cj-DLP2 with the trunk tip removed; source: E. coli BL21 (DE3), expressed and purified as for native; not shown: MBP, N-terminal, cleaved
# B3: Cj-DLP2 (natural protein, Campylobacter jejuni)
# chain: MQINLLNDFIKAYENTYSVSFDDSFKGRIQELCKELNEPFMHASYALENELKELVFSLDKNVNIAIIGQFSSGKSSLLNLILGRDCLPTGVVPVTFKPTFLRYAKEYFLRVEFEDGSDIITNIEKLAFYTDQRNEVKQAKSLHIFAPIPLLEKITLVDTPGLNANENDTLTTLDELKNIHGAIWLSLIDNAGKKSEEDAIKANLELLGENSICVLNQKDKLSAEELDNVLNYAKSVFLKYFNELIAISCKEAKDEQSYEKSNFQSLLDFLTQLDTTVLKEKFVKRKILNLCEILEDENQLFVGIFDRLLNQFQSYEKHLLLAYENFLKEIEILNHQILEQLKSISERISSEIFASVKEKDAYFYKESKGFLKKDLYTRYDYKAPYISSDDAFLAMFYNSDVMSKEFKKIKNELYKSFEEIKMKLKDFINILEREILLFKAEFSNIQKDHIFQSDKNFSELRAFCNASDEYFLKDFKELLFKSILELDLFFEKLNLKAFTNYENATKLSLAFFSRKINESRVLYELDSSEFVLFYPKKSEIYERVLNELNVYEFETLLINKPILTKIAKNFLEQSQNLIQEKNKFLDLKKAELQKRRAQILNVRESIKED
# notes: Cj-DLP2, dynamin-like protein of Campylobacter jejuni, gene cj0412, 71.2 kDa; Monomer alone; Two copies stand in the 2:2 tetramer with Cj-DLP1; also called cj0412; CJ0412; source: E. coli BL21 (DE3), purified (amylose resin, TEV cleavage, gel filtration); not shown: MBP, N-terminal, cleaved
# B4: Cj-DLP1_(∆trunk) (natural protein)
# chain: MKELFQKIWQNELQFLNFDAKFQDKSKLDTAECAIILSVNKDNYERYFLLKEFQELCKKIDLRVDIFSMQNAQICILNLFKSGFISKQDLLKALKILEKISKNTEIFDFILQEKVQSIDQKALFQNDFKELNTINLELQKLSFDENLKSRLQKTLEKFQNLEFNIAITGVMNAGKSSLLNALLKEDFLGVSNIPETANLTVLSYGKSEEAKIYFWDKKEWQNILESSHFNADLKEFIDKLDKSVNIEDFIKDKPLIQNIALCELKNFSSAKNKISALIKKIEIKSHLEFLKNNISIVDTPGLDDVVVQREIVTNEYLRESDFLIHLMNASQSLTQKDADFLVHCLLNSRLSKFLIVLTKADLLSKKDLEEVIVYTKESLKSRLVDLDENLVEKIDFLCVSAKMASDFYKGLASKESLQKSGMQEFENYLFNELYAGEKSKIALRAYKKELHLELKNILSEYEMQNRLIKLKNQDANILNSFEENLEKIEKLKQLEMGLLNAD
# notes: Cj-DLP1 of Campylobacter jejuni (cj0411) with amino acids 470-695 (trunk) deleted; also called Cj-DLP1 with the trunk removed; source: E. coli BL21 (DE3), expressed and purified as for native
# Experiments:
# Conditions in all cases: both partners purified
# Cj-DLP2 = target: B3; assay: SEC-MALS; the two proteins mixed; 100 μl at 1–2 mg/ml on Superdex 200 10/300 GL in TEN 7.5 (20 mM Tris pH 7.5, 1 mM EDTA, 1 mM sodium azide), 1 mM DTT
# Cj-DLP1 [1] = target: B1; assay: as above
# Cj-DLP1 [2] = target: B1; assay: crystal structure; Cj-DLP1/2 tetramer, apo (3.7 Å) and with GDP·AlF4¯ (3.9 Å), space group P2(1)2(1)2(1); sitting drop, 0.7–1.0 M succinate pH 7.0, 20 °C
binder,measurement,setting,value
B1,stoichiometry N,Cj-DLP2,1 Cj-DLP1 per Cj-DLP2 (2:2 tetramer)
B2,binding result,Cj-DLP1 [1],binds
B3,binding result,Cj-DLP1 [2],binds
B4,binding result,Cj-DLP2,binds
